Reference: patent US20170305981

What was measured:
AV199-232 = system: T1, AV199-232
T1 sequence: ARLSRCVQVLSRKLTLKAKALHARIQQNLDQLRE

AV199-237 = system: T2, AV199-237
T2 sequence: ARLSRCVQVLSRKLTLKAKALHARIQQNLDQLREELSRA

What does the source list for lipoprotein lipase (LpL), SIGMA?
Km of LpL for substrate, with VLDL, 2.5 µM peptide (AV199-232): substantially improved the Km by almost 8-fold; apparent affinity of LpL for substrate (Michaelis-Menten fit), AV199-232 (2.5 µM) + VLDL (10 µg/ml) (AV199-232): AV199-232+VLDL increases LpL's apparent affinity for substrate by 7.8-fold; LpL hydrolytic activity (EnzChek fluorogenic TG substrate), peptide pre-incubated with VLDL (AV199-237): hydrolytic activity was increased ˜4-fold; affinity of LpL for substrate on addition of VLDL (10 µg/ml) (apoC-III content of VLDL): The addition of VLDL reduced the enzymes affinity for substrate by 5.3-fold
